Measured values published in the supplement of paper PMC10724198.

What was measured:
Saccharomyces cerevisiae [1] = assay: protein stability index of tFT-peptide fusion in wild type (PSI (0-1 scale)); higher = more stable (slower turnover); details: genetic background: wild type
Saccharomyces cerevisiae [2] = assay: protein stability index of tFT-peptide fusion in deletion strain of DOA10 (PSI (0-1 scale)); higher = more stable (slower turnover)
Description: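 MPS profiling in S. cerevisiae of two library types built from selected 12-aa C-degron peptides (IN1, IN2, LN1, LN3, VN2, R1-R5, W1-W3, Atg1 and Rpa12 C-termini): saturation mutagenesis libraries and C-terminal +1 capping libraries (13 aa). Each peptide is fused to the C-terminus of a sfGFP-mCherry timer, after a GGGS linker. Cells are FACS-sorted into 8 mCherry/sfGFP bins and sequenced. PSI runs from 0 (unstable) to 1 (stable), measured once in wild type and in the das1Δ or doa10Δ background.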
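Throughout, for protein stability index of tFT-peptide fusion in deletion strain of DOA10: PSI per variant is the weighted mean of its sequencing read distribution over the sorted stability bins, counting only variants with over 10 reads summed across bins.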
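Throughout, for protein stability index of tFT-peptide fusion in wild type: PSI derived as read-weighted mean over the 8 sorting bins, only variants exceeding 10 total reads kept, mCherry placed adjacent to the peptide and sfGFP distal.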

Sequence | protein stability index (Saccharomyces cerevisiae [1]) | protein stability index (Saccharomyces cerevisiae [2])
RELRVLLPLYFR | 0.19 | 0.684
RHTRLDAIYFRI | 0.517 | 0.679
RKLRVLLPLYFR | 0.282 | 0.668
RSDRVLLPLYFR | 0.352 | 0.696
RSLCVLLPLYFR | 0.247 | 0.616
RSLHVLLPLYFR | 0.273 | 0.634
RSLIVLLPLYFR | 0.288 | 0.597
RSLRALLPLYFR | 0.491 | 0.684
RSLRQLLPLYFR | 0.466 | 0.68
RSLRTLLPLYFR | 0.455 | 0.686
RSLRVFLPLYFR | 0.127 | 0.693
RSLRVLLALYFR | 0.287 | 0.552
RSLRVLLGLYFR | 0.392 | 0.662
RSLRVLLPCYFR | 0.409 | 0.647
RSLRVLLPKYFR | 0.646 | 0.676
RSLRVLLPLGFR | 0.482 | 0.682
RSLRVLLPLQFR | 0.472 | 0.635
RSLRVLLPLVFR | 0.356 | 0.676
RSLRVLLPLYFG | 0.452 | 0.591
RSLRVLLPLYFRS | 0.3 | 0.644
RSLRVLLPLYMR | 0.326 | 0.696
RSLRVLQPLYFR | 0.285 | 0.685
RSLTVLLPLYFR | 0.24 | 0.662
RVARLDAIYFRI | 0.449 | 0.663
RVFRLDAIYFRI | 0.319 | 0.619
RVTALDAIYFRI | 0.558 | 0.69
RVTRFDAIYFRI | 0.287 | 0.645

Sequence | protein stability index (Saccharomyces cerevisiae [1]) | protein stability index (Saccharomyces cerevisiae [2])
RVTRLDAIHFRI | 0.66 | 0.7
RVTRLDAIVFRI | 0.534 | 0.693
RVTRLDAIYCRI | 0.621 | 0.696
RVTRLDAIYFRC | 0.431 | 0.66
RVTRLDAIYFRD | 0.688 | 0.72
RVTRLDAIYFRIC | 0.0626 | 0.103
RVTRLDAIYFRIE | 0.627 | 0.689
RVTRLDAIYFRIM | 0.0601 | 0.129
RVTRLDAIYFRIN | 0.0776 | 0.125
RVTRLDAIYFRM | 0.422 | 0.674
RVTRLDAIYFRR | 0.653 | 0.708
RVTRLDASYFRI | 0.676 | 0.715
RVTRLDCIYFRI | 0.367 | 0.647
RVTRLDGIYFRI | 0.389 | 0.567
RVTRLDHIYFRI | 0.281 | 0.717
RVTRLDSIYFRI | 0.46 | 0.703
RVTRLDVIYFRI | 0.3 | 0.649
RVTRLFAIYFRI | 0.177 | 0.409
RVTRNDAIYFRI | 0.552 | 0.694
RVTRTDAIYFRI | 0.499 | 0.704
RVTRWDAIYFRI | 0.165 | 0.368
RVTRYDAIYFRI | 0.332 | 0.603
SVTRLDAIYFRI | 0.363 | 0.716
VSLRVLLPLYFR | 0.283 | 0.611
WSLRVLLPLYFR | 0.269 | 0.636
WVTRLDAIYFRI | 0.161 | 0.62
